What all share (details): scale: relative to the halftime of the reference standard
Experiment [1] concerns the target Ac-His-Ala-Asp-Ala-MeVal-Phe-Thr-Glu-Asn-Tyr-Thr-Lys-Leu-Arg-Lys-Gln-Nle-Ala-Ala-Lys-Lys-Tyr-Leu-Asn-Asp-Leu-Leu-Lys-Gly-Gly-Thr-NH2 (Artificial Sequence).
For experiment [2], the target named is Ac-His-Ala-Asp-Ala-MeVal-Phe-Thr-Glu-Asn-Tyr-Thr-Lys-Leu-Arg-Lys-Gln-Nle-Ala-Ala-Lys-Lys-Tyr-Leu-Asn-Asp-Leu-Lys-Lys-Gly-Gly-Thr-NH2 (Artificial Sequence).
Experiment [3] concerns the target Ac-His-Ser-Asp-Ala-MeVal-Phe-Thr-Glu-Asn-Tyr-Thr-Lys-Leu-Arg-Lys-Arg-Nle-Ala-Ala-Lys-Lys-Tyr-Leu-Asn-Asp-Leu-Lys-Lys-Gly-Gly-Thr-NH2 (Artificial Sequence).
The target of experiment [4] is Ac-His-Ser-Asp-Ala-MeVal-Phe-Thr-Glu-Asn-Tyr-thr-Lys-Leu-Arg-Lys-Gln-Nle-Ala-Ala-Lys-Lys-Tyr-Leu-Asn-Asp-Leu-Leu-Lys-Gly-Gly-Thr-NH2 (Artificial Sequence).

For the substance “Elastase (Human Neutrophil, Calbiochem, Cat # 324681) (from UniProt P08246) (enzyme)”, the Relative elastase stability is 3.6 in experiment [1], 5.7 in experiment [2], 1.8 in experiment [3] and 3.4 in experiment [4].
